For 5 molecules, binding result, Kd and EC50 results are on record in patent US20260284212 (published 2026).

As a reminder, the Kd is the concentration at which binding is half-saturated. Lower therefore signals a tighter complex. As usually defined, the EC50 is the concentration at which the effect is half-maximal. Lower therefore signals greater potency.

The chains are these.
T1: human CD5 (human, UniProt P06127)
T1 chain: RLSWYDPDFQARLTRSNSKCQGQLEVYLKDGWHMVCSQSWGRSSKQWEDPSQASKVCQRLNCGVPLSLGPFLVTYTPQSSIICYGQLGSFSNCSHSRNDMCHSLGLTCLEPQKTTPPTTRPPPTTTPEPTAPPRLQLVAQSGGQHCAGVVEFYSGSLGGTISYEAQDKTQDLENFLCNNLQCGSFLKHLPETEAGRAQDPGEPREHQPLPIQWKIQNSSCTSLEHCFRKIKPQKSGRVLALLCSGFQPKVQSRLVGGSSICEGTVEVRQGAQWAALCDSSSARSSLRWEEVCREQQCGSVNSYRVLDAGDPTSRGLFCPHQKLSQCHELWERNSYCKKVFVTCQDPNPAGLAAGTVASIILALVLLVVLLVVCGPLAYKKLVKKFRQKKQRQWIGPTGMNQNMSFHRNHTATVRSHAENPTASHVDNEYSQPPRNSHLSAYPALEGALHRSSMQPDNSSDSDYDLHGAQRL

T2: human CD6 (human, UniProt P30203)
T2 chain: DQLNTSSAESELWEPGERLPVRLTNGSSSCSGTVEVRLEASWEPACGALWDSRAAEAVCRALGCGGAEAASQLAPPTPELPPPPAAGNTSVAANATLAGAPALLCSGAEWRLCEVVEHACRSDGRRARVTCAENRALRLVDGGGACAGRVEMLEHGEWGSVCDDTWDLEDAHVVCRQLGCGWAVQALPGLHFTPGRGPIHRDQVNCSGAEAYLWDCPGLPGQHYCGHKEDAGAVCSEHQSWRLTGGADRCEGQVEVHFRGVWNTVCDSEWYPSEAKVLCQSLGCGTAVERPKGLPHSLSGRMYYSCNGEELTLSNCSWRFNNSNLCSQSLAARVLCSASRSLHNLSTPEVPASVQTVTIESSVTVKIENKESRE

B1: CD601HH8 HuG1Fc (antibody, V domains shown)
VH: QVQLVESGGGLVQPGGSLRLSCSASERTFSDYAMGWFRQAPGKEREFVAAINWVGGSTYYADSVKGRFTISRDNSKNTLYLQMNSLRAEDTAVYYCVASWGAMPVLTHVINYWGKGTLVTVSS
B2: A1CD601 VHH HuG1Fc (chimeric) (antibody, V domains shown)
VH: QVQLQESGGGLVQAGGSLRLSCTASERTFSDYALGWFRQGPGKEREFVAAINWVGGSTYYADSVKGRFTISRDNAKNTLLLQMNSLKPEDTAVYFCVASWGAMPVLTHVINYWGKGTQVTVSS
B3: CD601HH12 HuG1Fc (antibody, V domains shown)
VH: B1 VH with S23T, M34L
B4: CD601HH14 HuG1Fc (antibody, V domains shown)
VH: B1 VH with M34L, S75A
B5: CD601HH10 HuG1Fc (antibody, V domains shown)
VH: B1 VH with V5Q, M34L

Where a chain is given by its changes, count along the chain named.

In the first test the target is T1, human CD5. Description: ELISA. Background: In an ELISA, binding on a coated surface is turned into a signal by an enzyme label.
Turning to B1, the binding result is “no binding”.
Take B2: the binding result is on record as “no binding”.
Same read-out and setting: as for B3, the entry is “no binding”; as for B4, “no binding”; as for B5, “no binding”.

A further test concerns the target T2, human CD6.
Test: not given
As to B1, the Kd amounted to 0.24 nM.
The same measure, in the same setting: then B2, with 0.21 nM; and B3, with 0.222 nM.
Still for that read-out and setting: then B4, with 0.269 nM; and B5, with 0.247 nM.

The target in another test is T2, human CD6. Briefly: ELISA.
For B1, a half-maximal effect (EC50) was put at 0.053 nM.
In turn, B2 came in with an EC50 of 0.053 nM.
On the same count and under the same terms, as for B3, the figure is 0.05 nM.
As for B4, it took 0.053 nM to reach a half-maximal effect (EC50).
Still for that read-out and setting: then B5, with 0.066 nM.
